These results are taken from patent US20060211075A1, “Enzyme sensors including environmentally sensitive or fluorescent labels and uses thereof” (The Albert Einstein College of Medicine of Yeshiva …, priority 2005, published 2006).

Starred links: 1 amine or outer side, 2 acyl side, 3 side chain; linkers in the order of their positions; H or OH if unused. Non-standard residues stand in square brackets, D forms with d. pY = N[C@@H](Cc1ccc(OP(=O)(O)O)cc1)C(=O)O; Cysteamide = C(CS[*:3])N[*:1]; Dap = NC[C@H](N)C(=O)O

In the assay the target is GST-Lck-SH2 (UniProt P06239). Nature of the assay: fluorescence change on Src-catalysed phosphorylation in presence of GST-Lck-SH2 (1.25 µM peptide, 5 µM Lck-SH2, 12 nM Src, 1 mM ATP).
Sequence of GST-Lck-SH2 (P06239 127-224): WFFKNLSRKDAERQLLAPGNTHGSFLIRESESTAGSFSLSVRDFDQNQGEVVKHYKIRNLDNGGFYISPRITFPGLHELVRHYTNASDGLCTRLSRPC

B1: Src-phosphorylated library peptide with Dap-5 (dapoxyl on Dap) at P+1 of Ac-Glu-Glu-Glu-Ile-Tyr-Gly-Glu-Ile-Glu-Ala (peptide)
peptide: Ac-EEEI[pY][Dap](dapoxyl)EIEA-Cysteamide
modifications: not fully specified
Turning to B1, the Fold change in fluorescence intensity came out at 0.6 fold.
